Patent US20240261333A1 (published 2024)

T1: CPSF7 (human, UniProt Q8N684 1-471)
T1 construct: also called NP_001129512.1 (+5)
T1 sequence (looked up): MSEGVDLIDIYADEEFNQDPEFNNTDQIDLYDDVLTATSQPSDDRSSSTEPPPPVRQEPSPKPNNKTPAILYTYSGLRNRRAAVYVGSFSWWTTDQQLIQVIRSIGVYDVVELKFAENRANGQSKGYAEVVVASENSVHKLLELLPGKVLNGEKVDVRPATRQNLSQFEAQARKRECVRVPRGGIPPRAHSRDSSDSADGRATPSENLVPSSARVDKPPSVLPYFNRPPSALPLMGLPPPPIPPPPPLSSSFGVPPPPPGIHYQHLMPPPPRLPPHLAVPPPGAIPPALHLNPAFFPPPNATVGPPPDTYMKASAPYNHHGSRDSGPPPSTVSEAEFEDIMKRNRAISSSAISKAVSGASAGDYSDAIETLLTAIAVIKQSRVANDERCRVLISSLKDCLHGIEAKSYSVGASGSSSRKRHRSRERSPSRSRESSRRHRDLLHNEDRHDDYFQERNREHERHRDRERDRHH

T2: SPARC (human, UniProt P09486 18-303)
T2 construct: also called NP_001296372.1 (+1)
T2 sequence (looked up): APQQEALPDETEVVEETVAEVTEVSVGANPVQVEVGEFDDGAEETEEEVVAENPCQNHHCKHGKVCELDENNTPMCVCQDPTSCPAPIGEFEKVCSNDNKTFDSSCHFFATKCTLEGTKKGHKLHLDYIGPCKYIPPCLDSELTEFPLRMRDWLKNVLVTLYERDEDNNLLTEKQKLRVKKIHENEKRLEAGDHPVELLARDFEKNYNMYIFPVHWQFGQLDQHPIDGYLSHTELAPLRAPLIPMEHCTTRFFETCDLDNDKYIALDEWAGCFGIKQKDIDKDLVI

T3: NAP1L1 (human, UniProt P55209 2-388)
T3 construct: also called NP_001294853.1 (+1)
T3 sequence (looked up): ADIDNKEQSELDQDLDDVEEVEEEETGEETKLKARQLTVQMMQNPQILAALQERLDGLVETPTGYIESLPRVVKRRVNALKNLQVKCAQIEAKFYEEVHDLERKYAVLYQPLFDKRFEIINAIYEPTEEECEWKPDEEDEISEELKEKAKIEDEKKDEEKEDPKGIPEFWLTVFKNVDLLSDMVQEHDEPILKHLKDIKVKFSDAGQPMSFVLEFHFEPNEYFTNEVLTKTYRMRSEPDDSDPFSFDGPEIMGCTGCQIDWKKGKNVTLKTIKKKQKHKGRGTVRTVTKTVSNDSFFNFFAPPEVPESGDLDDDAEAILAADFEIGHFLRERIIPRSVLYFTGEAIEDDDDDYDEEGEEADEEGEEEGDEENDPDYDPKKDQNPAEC


Experiments:
Assay in all cases: co-IP with anti-FLAG, N-FLAG B3GNT2, mass spectrometry
RPS26 = RPS26 (human, UniProt P62854 2-115)
RPL23 = RPL23 (human, UniProt P62829 1-140)
RPS14 = RPS14 (human, UniProt P62263 2-151)
CPSF7 = biological target: T1, CPSF7
SPARC = biological target: T2, SPARC
NAP1L1 = biological target: T3, NAP1L1
LAMC1 = biological target: T4, LAMC1 (human, UniProt P11047 34-1609)
T4 construct: also called NP_002284.3

RPS24 = biological target: T5, RPS24 (human, UniProt P62847-4 1-289, limits assumed)
T5 construct: also called NP_001135757.1

P4HA2 = biological target: T6, P4HA2 (human, UniProt O15460 22-535, limits assumed)
T6 construct: also called NP_001352606.1 (+3)
T6 sequence (O15460 22-535 limits assumed): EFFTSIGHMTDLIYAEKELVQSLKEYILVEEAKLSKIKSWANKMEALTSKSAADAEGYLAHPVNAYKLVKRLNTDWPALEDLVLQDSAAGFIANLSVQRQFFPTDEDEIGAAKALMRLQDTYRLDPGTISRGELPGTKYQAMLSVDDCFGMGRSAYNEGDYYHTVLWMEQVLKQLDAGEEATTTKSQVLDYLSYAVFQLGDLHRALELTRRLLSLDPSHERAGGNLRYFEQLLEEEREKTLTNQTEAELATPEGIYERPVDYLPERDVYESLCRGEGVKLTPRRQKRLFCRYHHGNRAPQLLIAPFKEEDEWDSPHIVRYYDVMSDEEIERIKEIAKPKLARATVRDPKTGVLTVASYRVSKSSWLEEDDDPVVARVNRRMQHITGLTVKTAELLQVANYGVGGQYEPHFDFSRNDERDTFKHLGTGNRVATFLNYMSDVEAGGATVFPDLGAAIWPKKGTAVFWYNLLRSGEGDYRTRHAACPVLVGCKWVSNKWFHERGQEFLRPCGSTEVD

T4 sequence (P11047 34-1609 limits assumed): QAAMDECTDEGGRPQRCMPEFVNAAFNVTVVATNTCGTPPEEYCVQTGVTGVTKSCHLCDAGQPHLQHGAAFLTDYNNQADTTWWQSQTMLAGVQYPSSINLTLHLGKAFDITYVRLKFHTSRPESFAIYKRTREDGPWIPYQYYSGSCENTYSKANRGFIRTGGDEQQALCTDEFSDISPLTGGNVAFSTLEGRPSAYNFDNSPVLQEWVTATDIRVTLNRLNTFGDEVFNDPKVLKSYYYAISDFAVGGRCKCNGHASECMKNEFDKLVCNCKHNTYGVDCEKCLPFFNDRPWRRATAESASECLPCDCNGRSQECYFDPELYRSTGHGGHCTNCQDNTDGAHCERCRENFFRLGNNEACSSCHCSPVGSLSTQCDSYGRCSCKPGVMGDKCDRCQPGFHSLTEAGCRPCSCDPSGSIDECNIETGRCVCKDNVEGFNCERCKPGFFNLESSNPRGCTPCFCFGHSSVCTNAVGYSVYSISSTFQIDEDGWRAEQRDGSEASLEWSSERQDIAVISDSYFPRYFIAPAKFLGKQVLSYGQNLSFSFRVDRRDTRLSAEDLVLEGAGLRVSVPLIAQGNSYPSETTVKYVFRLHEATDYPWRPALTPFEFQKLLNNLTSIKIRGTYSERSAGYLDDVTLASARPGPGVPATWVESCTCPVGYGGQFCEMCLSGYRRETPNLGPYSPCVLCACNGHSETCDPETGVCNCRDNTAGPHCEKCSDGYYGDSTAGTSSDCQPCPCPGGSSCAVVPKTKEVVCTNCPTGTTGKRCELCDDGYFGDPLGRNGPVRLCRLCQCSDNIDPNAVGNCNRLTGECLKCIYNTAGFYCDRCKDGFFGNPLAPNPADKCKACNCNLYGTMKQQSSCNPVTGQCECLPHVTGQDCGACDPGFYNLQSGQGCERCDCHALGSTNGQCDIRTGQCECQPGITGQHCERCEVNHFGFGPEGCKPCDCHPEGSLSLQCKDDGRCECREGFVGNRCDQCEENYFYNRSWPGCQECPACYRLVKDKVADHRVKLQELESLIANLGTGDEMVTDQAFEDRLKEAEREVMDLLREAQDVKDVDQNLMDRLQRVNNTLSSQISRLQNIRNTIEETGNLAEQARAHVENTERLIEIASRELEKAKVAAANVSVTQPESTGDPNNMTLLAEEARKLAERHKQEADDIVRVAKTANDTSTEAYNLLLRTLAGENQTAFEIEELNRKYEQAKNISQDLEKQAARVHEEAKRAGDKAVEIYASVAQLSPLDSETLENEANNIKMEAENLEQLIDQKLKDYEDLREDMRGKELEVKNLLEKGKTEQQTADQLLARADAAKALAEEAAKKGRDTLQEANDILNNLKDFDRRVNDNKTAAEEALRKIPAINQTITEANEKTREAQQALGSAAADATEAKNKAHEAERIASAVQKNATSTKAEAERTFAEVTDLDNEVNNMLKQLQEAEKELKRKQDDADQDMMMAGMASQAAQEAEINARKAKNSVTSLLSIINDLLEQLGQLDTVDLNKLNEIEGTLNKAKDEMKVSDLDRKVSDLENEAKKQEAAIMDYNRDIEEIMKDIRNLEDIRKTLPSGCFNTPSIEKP
T5 sequence (P62847 other isoform, or with tags, fused parts or gaps limits assumed): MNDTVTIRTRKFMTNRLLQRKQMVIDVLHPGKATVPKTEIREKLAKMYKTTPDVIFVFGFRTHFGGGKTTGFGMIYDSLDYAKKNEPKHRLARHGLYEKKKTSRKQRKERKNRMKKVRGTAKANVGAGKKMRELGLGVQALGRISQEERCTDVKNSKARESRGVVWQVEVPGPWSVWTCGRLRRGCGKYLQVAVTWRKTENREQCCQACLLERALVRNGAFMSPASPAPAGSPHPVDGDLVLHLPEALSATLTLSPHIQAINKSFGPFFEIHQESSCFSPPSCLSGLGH

Binder	co-IP mass spectrometry count (RPS26)	co-IP mass spectrometry count (RPL23)	co-IP mass spectrometry count (RPS14)	co-IP/MS count, N-term FLAG (CPSF7)	co-IP/MS count, N-term FLAG (SPARC)	co-IP/MS count, N-term FLAG (NAP1L1)	co-IP/MS count, N-term FLAG (LAMC1)	co-IP/MS count, N-term FLAG (RPS24)	co-IP/MS count, N-term FLAG (P4HA2)
N-terminal FLAG tagged B3GNT2 (enzyme, human, UniProt Q9NY97 1-397, looked up, FLAG-tagged ORF overexpressed in cells; pulled down from lysate with mouse anti-FLAG; also called N-FLAG B3GNT2; N-term FLAG; not shown: N-terminal FLAG tag) MSVGRRRIKLLGILMMANVFIYFIMEVSKSSSQEKNGKGEVIIPKEKFWKISTPPEAYWNREQEKLNRQYNPILSMLTNQTGEAGRLSNISHLNYCEPDLRVTSVVTGFNNLPDRFKDFLLYLRCRNYSLLIDQPDKCAKKPFLLLAIKSLTPHFARRQAIRESWGQESNAGNQTVVRVFLLGQTPPEDNHPDLSDMLKFESEKHQDILMWNYRDTFFNLSLKEVLFLRWVSTSCPDTEFVFKGDDDVFVNTHHILNYLNSLSKTKAKDLFIGDVIHNAGPHRDKKLKYYIPEVVYSGLYPPYAGGGGFLYSGHLALRLYHITDQVHLYPIDDVYTGMCLQKLGLVPEKHKGFRTFDIEEKNKNNICSYVDLMLVHSRKPQEMIDIWSQLQSAHLKC	6	7	11	–	–	–	–	–	–
N-terminal FLAG tagged B3GNT2 (enzyme, human, UniProt Q9NY97 1-397, looked up, FLAG-tagged ORF overexpressed in A375 cells; pulled down from the lysate with mouse anti-FLAG; also called N-FLAG B3GNT2; N-term FLAG; not shown: N-terminal FLAG tag) MSVGRRRIKLLGILMMANVFIYFIMEVSKSSSQEKNGKGEVIIPKEKFWKISTPPEAYWNREQEKLNRQYNPILSMLTNQTGEAGRLSNISHLNYCEPDLRVTSVVTGFNNLPDRFKDFLLYLRCRNYSLLIDQPDKCAKKPFLLLAIKSLTPHFARRQAIRESWGQESNAGNQTVVRVFLLGQTPPEDNHPDLSDMLKFESEKHQDILMWNYRDTFFNLSLKEVLFLRWVSTSCPDTEFVFKGDDDVFVNTHHILNYLNSLSKTKAKDLFIGDVIHNAGPHRDKKLKYYIPEVVYSGLYPPYAGGGGFLYSGHLALRLYHITDQVHLYPIDDVYTGMCLQKLGLVPEKHKGFRTFDIEEKNKNNICSYVDLMLVHSRKPQEMIDIWSQLQSAHLKC	–	–	–	12	0	0	0	0	0
